For experiment [1], the target named is T1, Krimper eTud1 (residues 272-512) (Drosophila melanogaster, UniProt A1ZAC4).
T1 construct: Krimper eTud1 (residues 272-512) was cloned into a self-modified pSumo vector; 10xHis (N, cleaved yes); yeast SUMO (N, cleaved yes); made in house; host or cells: E. coli BL21(DE3) Rosetta
T1 sequence (A1ZAC4 272-512): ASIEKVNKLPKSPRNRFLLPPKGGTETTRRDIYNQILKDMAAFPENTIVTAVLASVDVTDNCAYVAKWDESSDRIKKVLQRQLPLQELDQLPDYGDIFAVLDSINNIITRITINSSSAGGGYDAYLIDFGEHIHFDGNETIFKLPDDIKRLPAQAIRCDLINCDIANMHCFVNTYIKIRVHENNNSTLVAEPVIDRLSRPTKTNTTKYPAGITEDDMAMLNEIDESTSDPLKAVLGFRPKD
In words: ITC analysis of Krimper eTud1 with Ago3 or Aub peptides. As to conditions: Fig. 1f. The class given is binding. The text has this:
However, the region of Krimper responsible for Ago3 binding remained unknown. To study the Ago3-Krimper interaction, we expressed and purified eTud1 and eTud2 domains of Krimper (Fig. 1c) and tested their binding to peptides derived from the N-terminal Ago3 sequence using isothermal titration calorimetry (ITC) (Fig. 1f and Supplementary Fig. 1a). […] Thus, the two Tudor domains of Krimper have different binding preferences ensuring that Aub and Ago3 can bind Krimper simultaneously without direct competition for a binding site.
Krimper eTud1 (residues 272-512) was cloned into a self-modified pSumo vector with 10×His tag followed by a yeast sumo sequence. The plasmid was transformed into E. coli strain BL21(DE3) Rosseta and cultured at 37 °C in LB medium. The protein expression was induced by adding IPTG to a final concentration of 0.2 mM when the OD600 reached 0.7, and the cells were cooled to 16 °C. The recombinant expressed protein was purified using a HisTrap column (GE Healthcare). The […] plus yeast sumo tag was removed by ulp1 protease digestion followed by a second step HisTrap column (GE Healthcare). The target protein was further purified using MonoQ and Superdex G75 columns (GE Healthcare).
All ITC was performed using the Malvern PEAQ ITC instrument (Malvern) in a buffer of 50 mM NaCl, 20 mM HEPES pH 7.5, and 2 mM β-mercaptoethanol. […]

Experiment [2] deals with Krimper eTud1 (residues 272-512) (Drosophila melanogaster) (UniProt A1ZAC4). In words: ITC; Malvern PEAQ ITC; 50 mM NaCl, 20 mM HEPES pH 7.5, 2 mM β-mercaptoethanol; Krimper Tudor domain with peptides. (ITC needs no label: the signal is the heat of the interaction.)
The next experiment concerns the target T2, Krimper eTud1ΔC (Drosophila melanogaster, UniProt A1ZAC4).
T2 construct: Krimper contains two extended Tudor domains: eTud1(272-512) and eTud2 (562-746); made in house
The class given is binding. As to conditions: ITC, Fig. 1f, unmethylated Ago3-2 peptide. The procedure:
All ITC was performed using the Malvern PEAQ ITC instrument (Malvern) in a buffer of 50 mM NaCl, 20 mM HEPES pH 7.5, and 2 mM β-mercaptoethanol. Data analysis was performed using the Malvern data analysis software and Origin 7.0.

In experiment [3] the target is T3, Krimper eTud2 (residues 562-746) (Drosophila melanogaster, UniProt A1ZAC4 562-746).
T3 chain: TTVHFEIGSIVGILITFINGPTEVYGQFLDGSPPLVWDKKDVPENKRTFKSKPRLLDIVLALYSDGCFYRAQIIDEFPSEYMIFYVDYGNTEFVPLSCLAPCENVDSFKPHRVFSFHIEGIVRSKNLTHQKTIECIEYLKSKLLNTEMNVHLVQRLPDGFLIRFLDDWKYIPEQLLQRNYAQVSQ
The experiment is described as follows: ITC; R68me2.

Experiment [4] has as its target T3, Krimper eTud2 (residues 562-746). The experiment is described as follows: ITC; R70me2.
Experiment [5] has the same target. In words: ITC; R72me2.
For experiment [6] the target is unchanged. The experiment is described as follows: ITC; R15me2.

Where no end group is shown, it is not given here. [ ]: non-standard residue; d: D form. Arg(Me2s) = CN=C(NC)NCCC[C@H](N)C(=O)O

Turning to “H-NPVIARGRGRGRK-OH [Aub-1, unmethylated peptide from the N-terminal RG-repeat region of Aub used for ITC and structural analysis]”, in experiment [1], the “binding to eTud1 (in words)” value is “does not detectably interact”. In experiment [2], “Ago3-2 peptide (aa residues 63-78 of Ago3) (from UniProt Q7PLK0 63-78)” returned a Kd of 62.8 µM.

On to NISVGRGRARLIDTLK [Ago3-2], for which the “binding affinity of eTud1 ΔC compared with eTud1 (in words)” value at Krimper eTud1ΔC is given as “higher binding affinity”. For the molecule NISVG[Arg(Me2s)]GRARLIDTLK [Ago3-2 peptide methylated at R68], the Kd in experiment [3] came to 6.67 µM.

Turning to NISVGRG[Arg(Me2s)]ARLIDTLK [Ago3-2 peptide methylated at R70], binding in experiment [4] was characterised by a dissociation constant (Kd) of 2.2 µM. Take NISVGRGRA[Arg(Me2s)]LIDTLK [Ago3-2 peptide methylated at R72]: in experiment [5], binding was put at a Kd of 34.5 µM. Consider NPVIARGRGRGRK (also: symmetric dimethylarginine at R15) [Aub-R15me2 peptide], for which binding in experiment [6] was put at a Kd of 8.26 µM.

One may read the Kd as a measure of binding affinity in units of concentration. The low end stands for higher affinity, the high end for lower affinity.

Source of the values: paper PMC8249470, “Binding of guide piRNA triggers methylation of the unstructured N-terminal region of Aub leading to assembly of the piRNA amplification complex” (Nature Communications, 2021).
